From article PMC9161741 come the findings set out here.

For the series, the target named is T1, TFB2M T313E (human, UniProt Q9H5Q4 21-396, T313E).
T1 sequence: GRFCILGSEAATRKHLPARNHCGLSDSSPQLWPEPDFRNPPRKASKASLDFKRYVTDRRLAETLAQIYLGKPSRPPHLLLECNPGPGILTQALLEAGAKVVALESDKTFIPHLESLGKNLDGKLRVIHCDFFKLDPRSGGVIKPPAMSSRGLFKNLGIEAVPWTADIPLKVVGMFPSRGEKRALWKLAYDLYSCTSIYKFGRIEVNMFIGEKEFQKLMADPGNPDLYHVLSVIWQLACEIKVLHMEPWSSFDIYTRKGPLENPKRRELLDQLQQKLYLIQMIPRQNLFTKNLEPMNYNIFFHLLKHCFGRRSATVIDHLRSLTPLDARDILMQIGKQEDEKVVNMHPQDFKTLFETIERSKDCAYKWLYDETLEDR
Briefly: fluorescence anisotropy. Background: Fluorescence polarisation rises when a labelled molecule tumbles more slowly, as on binding a larger partner.

B1: LSP (-17 to +19), fluorescein (dsDNA)
DNA 1: AAAAGTGCATACCGCCAAAAGATAAAATTTGAAATC
DNA 2: GATTTCAAATTTTATCTTTTGGCGGTATGCACTTTT
On to B1, for which the Kd (usually a measure of binding affinity in units of concentration) is above 150 nM.
